In test [1] the target is T1, full-length human Hsp90α (human, UniProt P07900 1-732).
T1 construct: human Hsp90α
Put plainly: pull-down; GST-PP5 on glutathione Sepharose with Cdc37 or CK2-phosphorylated Cdc37 preincubated with Hsp90α for 1 hr; 4°C, 2 hr; 50 mM HEPES pH 7.5, 150 mM NaCl, 0.1% NP40, BSA; PP5 dephosphorylates Cdc37 during the incubation. The following applies: both partners purified.

In test [2] the target is T2, pSer13-Cdc37 (human Cdc37 expressed in Sf9 cells, phosphorylated on Ser13) (human, UniProt Q16543 1-378, phosphoserine at 13).
T2 construct: human Cdc37 (p50), phosphorylated on Ser13 in the insect cells; also called p50; Sf9-expressed Cdc37; source: Sf9 cells, baculovirus; purified in the C-K and H-C-K complexes with His6-Cdk4; free Cdc37 obtained as a by-product of the H-C-K complex purification
T2 sequence (looked up): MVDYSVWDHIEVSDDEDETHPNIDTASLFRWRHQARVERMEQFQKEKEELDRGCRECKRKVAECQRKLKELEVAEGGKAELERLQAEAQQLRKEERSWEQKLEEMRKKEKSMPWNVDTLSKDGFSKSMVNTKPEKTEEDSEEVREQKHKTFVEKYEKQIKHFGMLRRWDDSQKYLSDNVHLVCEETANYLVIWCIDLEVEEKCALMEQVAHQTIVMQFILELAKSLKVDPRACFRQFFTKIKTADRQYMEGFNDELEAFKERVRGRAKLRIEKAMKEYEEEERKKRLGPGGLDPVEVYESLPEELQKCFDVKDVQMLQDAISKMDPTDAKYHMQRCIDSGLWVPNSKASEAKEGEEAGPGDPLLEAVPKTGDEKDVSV
The test can be described thus: co-purification (His6 affinity); human Cdc37 and N-terminally His6-tagged Cdk4 co-expressed in Sf9 cells by baculovirus; complexes purified via the His6 tag on Cdk4; Coomassie-stained SDS-PAGE. To be noted: partners not purified.

In test [3] the target is T3, Cdc37 (human, Sf9-expressed) dephosphorylated with λ-phosphatase (human, UniProt Q16543 1-378).
T3 construct: human Cdc37 (p50), Ser13 dephosphorylated in vitro by λPP; Same construct as m2 after treatment with λPP; also called dephosphorylated Cdc37; Cdc37 in dephosphorylated C-K or H-C-K complex; source: Sf9 cells, baculovirus; purified in the C-K and H-C-K complexes, then dephosphorylated with λ-phosphatase (NEB)
T3 sequence (looked up): T2 sequence (looked up)
Put plainly: SEC; purified C-K complex incubated with or without λPP (1:10) for 1 hr at room temperature; Superose 6 HR10/30 in 50 mM Tris pH 7.5, 10 mM KCl, 10 mM MgCl2, 150 mM NaCl, 1 mM EDTA, 3 mM DTT; 1 ml fractions probed by Western blot. To be noted: both partners purified.

B1: pSer13-Cdc37 (E. coli-expressed Cdc37 phosphorylated in vitro with CK2) (natural protein, human, UniProt Q16543 1-378, looked up)
chain: T2 sequence (looked up)
modifications: phosphoserine at 13
notes: human Cdc37 (p50), phosphorylated on Ser13 by CK2 in vitro; also called phosphorylated Cdc37; pCdc37; source: E. coli, purified, phosphorylated in vitro with CK2 (Promega), further purified on Resource Q
For B1, the binding result in test [1] is given as “binds”.

B2: Cdc37 (E. coli-expressed, unphosphorylated) (natural protein, human, UniProt Q16543 1-378, looked up)
chain: T2 sequence (looked up)
notes: human Cdc37 (p50), not phosphorylated; also called WT-Cdc37; nonphosphorylated Cdc37; source: E. coli, purified
As for B2, in test [1], the binding result is recorded as “binds”.

B3: His6-tagged Cdk4 (enzyme, human, UniProt P11802 1-303, looked up)
chain: MATSRYEPVAEIGVGAYGTVYKARDPHSGHFVALKSVRVPNGGGGGGGLPISTVREVALLRRLEAFEHPNVVRLMDVCATSRTDREIKVTLVFEHVDQDLRTYLDKAPPPGLPAETIKDLMRQFLRGLDFLHANCIVHRDLKPENILVTSGGTVKLADFGLARIYSYQMALTPVVVTLWYRAPEVLLQSTYATPVDMWSVGCIFAEMFRRKPLFCGNSEADQLGKIFDLIGLPPEDDWPRDVSLPRGAFPPRGPRPVQSVVPEMEESGAQLLLEMLTFNPHKRISAFRALQHSYLHKDEGNPE
notes: Cdk4, Cdc37/Hsp90-dependent protein kinase; also called K (in C-K and H-C-K); source: Sf9 cells, baculovirus, co-expressed with human Cdc37; purified via the His6 tag as C-K and H-C-K complexes; not shown: His6, N-terminal, kept
Consider B3, for which the binding result in test [2] and in test [3] was “binds” in each case.
